# Results published in the DeepSol protein solubility set.
# Assay: soluble on expression in E. coli; label from the status in PepcDB or PDB records
row,Sequence,soluble on expression in E. coli
1,MPKRNDIKTILVIGSGPIIIGQAAEFDYAGTQACLALKEEGYRVILVNSNPATIMTDKEIADKVYIEPLTHDFIARIIRKEQPDALLPTLGGQTGLNMAIQLHESGVLQDNNVQLLGTELTSIQQAEDREMFRTLMNDLNVPVPESDIVNTVEQAFKFKEQVGYPLIVRPAFTMGGTGGGICHNDEELHEIVSNGLHYSPATQCLLEKSIAGFKEIEYEVMRDKNDNAIVVCNMENIDPVGIHTGDSIVVAPSQTLSDVEYQMLRDVSLKVIRALGIEGGCNVQLALDPHSFDYYIIEVNPRVSRSSALASKATGYPIAKLAAKIAVGLTLDEMLNPITGTSYAAFEPTLDYVISKIPRFPFDKFEKGERELGTQMKATGEVMAIGRTYEESLLKAIRSLEYGVHHLGLPNGESFDLDYIKERISHQDDERLFFIGEAIRRGTTLEEIHNMTQIDYFFLHKFQNIIDIEHQLKEHQGDLEYLKYAKDYGFSDKTIAHRFNMTEEEVYQLRMENDIKPVYKMVDTCAAEFESSTPYYYGTYETENESIVTDKEKILVLGSGPIRIGQGVEFDYATVHAVWAIQKAGYEAIIVNNNPETVSTDFSISDKLYFEPLTEEDVMNIINLEKPKGVVVQFGGQTAINLADKLAKHGVKILGTSLENLNRAEDRKEFEALLRKINVPQPQGKTATSPEEALANAAEIGYPVVVRPSYVLGGRAMEIVDNDKELENYMTQAVKASPEHPVLVDRYLTGKEIEVDAICDGETVIIPGIMEHIERAGVHSGDSIAVYPPQTLTEDELATLEDYTIKLAKGLNIIGLINIQFVIAHDGVYVLEVNPRSSRTVPFLSKITDIPMAQLAMRAIIGEKLTDMGYQEGVQPYAEGVFVKAPVFSFNKLKNVDITLGPEMKSTGEVMGKDTTLEKALFKGLTGSGVEVKDHGTVLMTVSDKDKEEVVKLAQRLNEVGYKILATSGTANKLAEYDIPAEVVGKIGGENDLLTRIQNGDVQIVINTMTKGKEVERDGFQIRRTTVENGIPCLTSLDTANALTNVIESMTFTMRQM,not soluble
2,MNASLTPDQVSKKLKQFFSDHLPISQFMGLEIESYDGDTLILTAPLEPNINDKQTAFGGSLYNAAVMACWGMVYLKTQEENIACNQVVTEGNMKYIAPVYGRIRAICHAPDEEELANFFDHFERKGKARISLEAAIYNDACVMKIEPETKPSVKFNGQYAILKNQ,soluble
3,MSELHYLYGKPTGTADLRTVNSDFIVKEILPFSPSGEGEHHLVHIRKDGLNTVQVAEMLAKFAKVHPKEVTYAGQKDKNAITEQWFGIRIPGKETPAWIELNSDRLTVLSSSRHSKKLRIGALLGNRFILTLRNVTNVEDIISRIEKVSQIGVPNYFGEQRFGHDGKNLVLGRQMLAGKKVKDRNKRSMYLSAVRSHLFNTVVSYRLTHYGTRPLAGDCVMLAGSKSFFVTPEWDLVVLKRLIEKDIQLSAPLWGRGKMLPQGEAAEVETQAMADLTEDCYGLEHAGLEQERRPLLLEPQGLKHEQTSDGLVLEFILPAGCFATSLLRELVDYQDVKELQWQTTLTAETNVVTESNTAAANVSDNGESASLEHHHHHH,soluble
4,MSLNRRELLERISEYQFACIELNLYLDNNPRDKKALDSYNRYCDKFTQAVCDYESKYGALTNFGYESSEYPWSWISEPWPWDKSFYK,soluble
5,PYIEIFEQPRQRGMRFRYKCEGRSAGSIPGEHSTDNNKTFPSIQILNYFGKVKIRTTLVTKNEPYKPHPHDLVGKDCRDGYYEAEFGPERRVLSFQNLGIQCVKKKDLKESISLRISKKINPFNVPEEQLHNIDEYDLNVVRLCFQAFLPDEHGNYTLALPPLISNPIYDNRAPNTAELRICRVNKNCGSVKGGDEIFILCDKVQKDDIEVRFVLDNWEAKGSFSQADVHRQVAIVFRTPPFLRDITEPITVKMQLRRPSDQEVSEPMDFRYLPD,soluble
6,EAQIYGYVEKATLIDQNLTLSAKLDTGAKSASLHAVNITEIEKKGIPYLRFTVPTKTGDYSFEGEYVGKVKIKVRSSETNPGLLRTTPIKRPVVLLNIKLGDKVRTIKVNLTNRKRFLYPLLLGRDAIIDFNGAVDPALTFTTKSK,not soluble
7,MDQKEAPSFTEASVHDPSVIKVEDTFYVFGSHLAAAKTEDLRNWTQIATHVHEGNPLIPNVFVELAEAFEWANSNTLWAADVIQLEDGRFYMYYNACQGDAPRSALGVAVADDIEGPYENLGVFLKSGMWGEESPDGTIYDANVHPNAIDPHVFFDEEGKLWMVYGSYSGGIFILEMDPDTGFPLPGQGYGTHLMGGNHSRIEAPYIHYDKETEYYYLYVTFGGLDSTGGYNMRVARSKQPDGPYVDGEGHLMSEVRGAPGTLFDDASIEPYGVKQMGNFLFKRELGERGTGYVSPGHNSVYYDDEVDKIFLFFHTRFPERGEAHEIRVHQMFMNRKGWPVIAPYRYTGESLEKVKAKEVIGDYQWINHGKEISAEIKESVTVRLEKNHKVLGDVTGKWKKVGDYHVELQIDGETYYGVFLRQWDPVAEREVMTFTALSEEGIAIWGSQLEEKTDNEIVDAVYDDLTLEGTIISDVELPTRGMRQTTIAWSSSHEEVLSSSGKVNRPEIGEDDVVVSLTATISKGSAERIKTFELVVPGQTEGGLVAHYPLNGTLENAVDDARFGSGTVTGNRIDNPGGTIAFEQGIDGEAAVFDGTTGIRLPNGLISRNTYTVSFWLNPEQLTEFTTAFFAARSEHHWLSFVPRGHSGMNHDTMLWAGSAQWYDAGTGVKLPVGEWSHVAFSVDNGEIVIYLNGEERFRGENFPNLFTTPNAYFALGVNHWDAPFQGMIDELRIYDGVALTREEIVHLAKQKLEHHHHHH,soluble
8,MSLVTSVSKLMFLGGSNKLICHNKETFVKILENPNQPLITVSNHRSNIDDPLMWCILKFREFWRYKDRNRYTLAAHNICFTKQFHTTMFSLGRCVPCVRGEGVYQKGMDFCVDMLNDNKWVHIFPEGKVCTLESEPLRFKWGIGRLVMDAKTDPVILPVWCKEMEKVWPTQPPYYPKFGNTVTVHIGEPFFLSDLKKTVLSKSLTTEQMRKIITDEVQTRMYQLGEKVGDLPKGSSLEILRKNPPIEY,not soluble
9,MDWEKVGLKMGLEIHQQLDTESKLFCPCRTELTDSEPDHDIVRNLRPTQSELGKFDRAAFEEAMRKLHFHYENYHEETCLVEADEEPPHPLNPEALEIAVTIALLLNMRVVDEFHTMRKQVIDGSNTGGFQRTGLVATDGHLETPQGTVKIENLCLEEDAARRIRETGDGVVFRLDRLGIPLVEITTDPSMSDPQQLREVAYQIGQILRSTRVKRGLGTIRQDLNISIRDGARVEVKGVQDLDLIPEIVEREVKRQLSLVEIRDTLQERGAVVEDKIFDVSEVFADTESRIISSAESVLAVKLRGFDGLIGVEIQPGRRLGTEMADYAKKRGVSGIFHTDELPAYGITEEEVRGLRDAVGASQGDAVVMVAHERVTAENALREVIRRAEMAIQGVPEETRKALPDGNTQYLRPLPTSSRMYLETDIPLFRIEDDLLEGIRRNLPELPSEKKERIMRDYGLSEDLASQLVKRNLVDEFEALTEFRVDTTVIASLLAYTLRELRREGHDVDGLGLDELRDAIKLLEVGKISKDALRDIVACMADEGLAAEDAARKLNLLLLAEDEIESIIQEIVEGNLDMISERGMGAMGPLMGQAMGRLRGRADGKVVNRILREKIQERL,soluble
10,MSRKYFYFDYDYYGMSFCEEEITTEPEEKVAYTSNSGGFADEVTGIPKEGHQSSIGEHSCVMPNTQDTGREEPEETSKVAETSEQSLFRIPRKAYRFTPGQLWELQAVFVENQYPDALKRKELAGLLNVDEQKIKDWFNNKRAKYRKIQREILGGKNITPTQEELRMKTLVESKKIIIFQEQEGDGLFWEHQNIDTQNSPLSLLFS,soluble
11,SLNKKFSYPIPNFTDRRKSIIFWRYLRFQARKILYFPQVRLLEKTLNKEKNKHLKDFFSQRPYACYNATRRFCDKSFKANERVKTLIYDVDKGLACFKFLPEEQIIFSFDEDFELFLGYNYNVCEEGFWAFSLKFKKYTILQCNFCFTLENNLLLSCIQGHKYKDFNILEINKILTKKCHGLRPVALLIECSKMLCEILKLQTTLGVHEKNQIRSQKGKEKGYFVDYQKIWLENGGELIKINKHKYYKLHHSQKNLEEIPSQKRSMYKKRFAMLEEIKTNLDKTLSIQD,not soluble
12,GSAPRVQEELCLVCGDRASGYHYNALTCEGCKGFFRRSVTKSAVYCCKFGRACEMDMYMRRKCQECRLKKCLAVGMRPECVVPENQCAMKRREKKAQKEKDKMTTSPSSQHGSPGIHRD,soluble
13,GDVVEAVENAVARVADTIGSGPSNSQAVPALTAVETGHTSQVTPSDTVQTRHVKNYHSRSESSIENFLSRSACVYMGEYHTTNSDQTKLFASWTISARRMVQMRRKLEIFTYVRFDVEVTFVITSKQDQGTQLGQDMPPLTHQIMYIPPGGPIPKSVTDYTWQTSTNPSIFWTEGNAPPRMSIPFISIGNAYSNFYDGWSHFSQNGVYGYNTLNHMGQIYVRHVNGSSPLPMTSTVRMYFKPKHVKAWVPRPPRLCQYKNASTVNFSPTDITDKRNSITYIPDTVKPDVSNH,soluble
14,MGSDKIHHHHHHMMTMRIAMISIHTSPLQQPGSGDAGGMNVYIISIARELARRGVDVDIYTRATRPSQGDVVEVESGLRVINIVAGPYEGLSKEELPTQLAAFAGGVVQFAKCHHMRYDVIHSHYWLSGQVGWLLRDLWNIPLVHTAHTLAAVKNAHRSAGDTEESEARRICEQQLVDNADILVVNTPEETNDLVRHYDANPDSVAVIAPGANVELFTPGTQRNTEQSRRCLGIPLHTKVMAFVGRLQQFKGPEVLLRAVAEMLERDPDRDMRVIMCGGPSGAAATVEHYIELTRSLGIAHRVRFLDPRPPEELVSVYQAADVVAVPSYNESFGLVAMEAQASGTPVVAARVGGLPIAVVDGETGVLVDGHDPIMWADALEQLLDDDPTRQQMGVAAVEHAANFTWAAAAEKLESVYGDAAMLDVAQCHDRYAAGSDRA,not soluble
15,MKVGVVGLQGDVSEHIEATKMAIEKLELPGEVIWLKRPEQLKGVDAVIIPGGESTTISRLMQRTGLFEPIKKMVEDGLPVMGTCAGLIMLAKEVLGATPEQKFLEVLDVKVNRNAYGRQVDSFEAPVKLAFDDEPFIGVFIRAPRIVELLSEKVKPLAWLEDRVVGVEQENIIGLEFHPELTNDTRIHEYFLRKVI,soluble
16,HMAQVFEECVSFINGLPRTINLPNELKLDLYKYYKQSTIGNCNIKEPSAHKYIDRKKYEAWKSVENLNREDAQKRYVDIVSEIFPYWQD,soluble
17,MPVILNFSSERVLSESELEALRHVGRVSQSEQLVVRGRTMRLHHISFMDSFSVEPVSGGLLDRLSARGHRLLAENLEIQLNRGHTFLQAFRLYMEQSRATPCTRQNVSSAIQNKINSHAFTVSHQDFSCHEQHLNCPITLCIPETGVFVRNAKNSEICSLYDHNALTELIRRNAPHPLSREPFVPEMIVSKDECHFNLIEQYFCILATQNICTRI,not soluble
18,MSLATKDPTAVERANLLNMAKLSIKGLIESALSFGRTLDSDYPPLQQFFVVMEHCLKHGLKGRKSFLSYNKTIWGPLELVEKLYPEAEEIGASVRDLPGLKTPLGRARAWLRLALMQKKMADYLRCLIIQRELLSEFYEYHALMMEEEGAVIVGLLVGLNVIDANLCVKGEDLDSQVGVIDFSMYLKNEEEIGNKERNVQIAAILDQKNYVEELNRQLNSTVSSLHSRVDSLEKSNTKLIEELAIAKNNIIKLQEENHQLRSENELILMRTRQHLEVTKVDVETELQTYKHSRQGLDEMYNDARRQLRDESQLRQDVENELSVQVGMKHEMELAMKLLEKDIHEKQDTLIGLRQQLEEVKAINIEMYQRLQGSEDGLKEKNEIIARLEEKTNKITTAMRQLEQRLQQAEKAQKEAEAEDEKYAQECLSQSDSLQRQISQKEQQLVQLETDLKIEKEWRQTLQEDLQKEKDVLSHLRHETQKVISLKKEFLNLQDENQQLKRIYQEQEQALQELGSKLCESKLKIDDIKEANKALQGLVWLKDKDATHCKLCEKEFSLSKRKHHCRNCGEIFCNACSDNELPLPSSPKPVRVCDSCHAMLIQRCSSNMPEGHHHHHH,not soluble
